{"source": "patent US20230322857A1", "about": "“RECOMBINANTLY ENGINEERED POLYPEPTIDES CAPABLE OF RECYCLING NONCANONICAL COFACTORS” (The Regents of the University of California, priority 2022, published 2023)", "format_in_all_cases": "biochemical", "key": {"[1]": {"assay": "Steady-state kinetics of TS-PTDH variants with NAD^+", "details": "100 mM MOPS, pH 7.25, 10 mM sodium phosphite, varied cofactor concentrations; n = 3", "method": "(§1) Purification and Characterization of TS-PTDH Variants. The E. coli BL21(DE3) strains harboring pQElac plasmids encoding the TS-PTDH or TS-PTDH variants were grown in 2×YT media with kanamycin and ampicillin at 37° C. The IPTG-inducible expression, Ni-affinity purification, and protein concentration determination was conducted as described above.\n(§2) The steady-state kinetic parameters toward the coenzymes were measured by spiking purified protein into a 100 μL reaction mixture containing 100 mM MOPS, pH 7.25, 10 mM sodium Pt, and varied cofactor concentrations from 0.02 mM to 5 mM at 25° C. The kinetic parameters were measured by monitoring the […] of reduced coenzyme at 340 nm. Data were fitted to the Michaelis-Menten equation to generate estimates of KM and kcat values."}, "[2]": {"assay": "Steady-state kinetics of TS-PTDH variants with NADP^+", "details": "100 mM MOPS, pH 7.25, 10 mM sodium phosphite, varied cofactor concentrations; n = 3", "method": "as §1, §2"}, "[3]": {"assay": "Steady-state kinetics of TS-PTDH variants with NMN^+", "method": "as §1, §2"}, "[4]": {"assay": "TS-PTDH total turnover number determination (NMN(H) cycling with XenA, KIP to levodione)", "details": "averaged over the 16-day reaction", "method": "TS-PTDH Total Turnover Number Determination. Reactions to determine the TTN of TS-PTDH LY-13 (see FIG. 10B) were performed at 1 mL volumes in 2 mL glass vials secured with a PTFE-lined screw cap. Reactions were incubated without shaking at 30° C. Reaction buffer was comprised of 200 mM MOPS at pH 7.5, 100 mM sodium phosphite, 6 mM NMN^+, and 33 mM ketoisophorone (KIP). To initiate the reaction, purified TS-PTDH LY-13 and XenA were spiked into the reaction mixture to a final concentration of 0.25 μM and 18.8 μM, respectively. The reactions were sampled intermittently by removing 50 μL of reaction mixture and mixing with 100 μL of ethyl acetate containing 200 mg/L1-octanol. Samples were vortexed, centrifuged, and the ethyl acetate fraction was transferred to a GC vial for GC-FID analysis. GC-FID analysis for KIP biotransformation efficiency was performed on an Agilent 6850 GD using an Agilent DB-WAX column (30 m×0.56 mm×1 μm). Helium was used as a carrier gas. The inlet and detector were held at 250 and 260° C., respectively. 5 μL of sample was injected with a 2:1 split ratio. […] TTN was calculated by the moles of levodione produced divided by the moles of LY-13 supplied to the reaction system. Total turnover frequency was determined by dividing TTN by the total reaction time of 384 h. Levodione concentration was determined by correlating sample response to a standard curve of known values."}, "[5]": {"assay": "Comparison of PTDH and GDH Triple redox cofactor cycling systems", "method": "Comparison of PTDH and GDH Triple Redox Cofactor Cycling Systems. In cycling reactions focused on higher conversion and productivity, see FIG. 10C, the concentration of cofactor cycling protein (TS-PTDH or GDH Triple) was increased relative to the TTN determination experiments. Reactions were performed at 30° C. without shaking in 1 mL volumes in 2 mL glass vials secured with a PTFE-lined screw cap. Sampling and GC-FID analysis were performed as described in the TTN method section.\nReactions utilizing TS-PTDH LY-13 contained 100 mM MOPS at pH 7.5, 100 mM sodium phosphite, 33 mM KIP, and 18.8 μM XenA. Reactions utilizing GDH Triple contained 200 mM potassium phosphate at pH 7.5, 300 mM D-glucose, 1 M NaCl, 33 mM KIP, and 18.8 μM XenA. The NMN^+ concentration in each reaction was varied at 0, 0.05, 0.1, 0.5, or 5 mM. The reactions were initiated by spiking TS-PTDH LY-13 or GDH Triple to a final concentration of 10 μM."}, "[6]": {"details": "100 mM MOPS, pH 7.25, 10 mM sodium phosphite, varied cofactor concentrations, n = 3"}}, "note": "Entries after “also recorded” stand apart in the source; their conditions may differ.", "data": [{"molecule": "LY-13: phosphite dehydrogenase variant with A155N, E175A, A176F (SEQ ID NO: 6) (protein) MLPKLVITHRVHEEILQLLAPHCELITNQTDSTLTREEILRRCRDAQAMMAFMPDRVDADFLQACPELRVIGCALKGFDNFDVDACTARGVWLTFVPDLLTVPTAELAIGLAVGLGRHLRAADAFVRSGKFRGWQPRFYGTGLDNATVGFLGMGNIGLAMADRLQGWGATLQYHAFKALDTQTEQRLGLRQVACSELFASSDFILLALPLNADTLHLVNAELLALVRPGALLVNPCRGSVVDEAAVLAALERGQLGGYAADVFEMEDWARADRPQQIDPALLAHPNTLFTPHIGSAVRAVRLEIERCAAQNILQALAGERPINAVNRLPKANPAAD", "values": [{"measurement": "Km", "setting": "[1]", "result": "180 ± 30", "unit": "µM"}, {"measurement": "NAD^+ kcat", "setting": "[1]", "result": "2.06 ± 0.11", "unit": "s⁻¹"}, {"measurement": "Km", "setting": "[2]", "result": "50 ± 10", "unit": "µM"}, {"measurement": "NADP^+ kcat", "setting": "[2]", "result": "0.96 ± 0.02", "unit": "s⁻¹"}, {"measurement": "Km", "setting": "[3]; [6]", "result": 620, "unit": "µM"}, {"measurement": "NMN^+ kcat", "setting": "[3]; [6]", "result": "0.27 ± 0.01", "unit": "s⁻¹"}, {"measurement": "increase in catalytic efficiency for NMN^+ compared to TS-PTDH (wild type enzyme)", "setting": "[3]; vs TS-PTDH", "result": "~110", "unit": "fold"}, {"measurement": "increased catalytic efficiency (kcat/Km) for NMN^+ compared to TS-PTDH A155N", "setting": "[3]; vs parent enzyme TS-PTDH A155N", "result": "~44", "unit": "fold"}, {"measurement": "Total Turnover Frequency", "setting": "[4]", "result": "~117", "unit": "turnovers per hour"}, {"measurement": "time to complete conversion of the 33 mM KIP pool", "setting": "[5]; 5 mM NMN^+ supplied, 10 μM cycling enzyme, 18.8 μM XenA", "result": 12, "unit": "h"}, {"measurement": "biotransformation performance compared to GDH Triple at low NMN^+", "setting": "[5]; NMN^+ supplementation 1 mM and lower", "result": "higher biotransformation rates and final titers; also recorded: more efficient utilization of the NMN^+ pool; also recorded: outperform GDH Triple"}]}]}
